1 molecule from patent publication US20250017964A1, “ENGINEERING OR INDUCING PDGF AND/OR PDGFR SIGNALING TO ENHANCE NK CELL THERAPY” (City of Hope, priority 2021, published 2025) can be followed below.

The subject of assay [1] is PDGFRβ expression in human NK cells. Briefly: Cytokine-induced PDGFRβ expression in purified human NK cells, flow cytometry. It is filed as cell-based. The following applies: cytokine 10 ng/ml, 24 h; IL-15 effect dose- and time-dependent. An excerpt: Data shown are the percentages of PDGFRβ^+ NK cells among total NK cells (n=5). […] Bar=20 μm. […] Data represent three independent experiments. Data shown are means SD.
(§1) FIGS. 7A-7F. […] Data shown are representative histograms and mean fluorescence intensity (MFI) of PDGFRα. […] Expression levels of PDGFRβ were examined by flow cytometry (n=6). […] Data shown are the percentages of PDGFRβ^+ NK cells among total NK cells (n=5). […] Data shown are representative histograms with MFI of PDGFRβ expression. (F) Expression levels of PDGFRβ on NK cells from IL-15 transgenic (Tg) mice were determined by flow cytometry. Data shown are representative histograms. Data represent three independent experiments.
NK cells were cultured in RPMI 1640 with 10% heat-inactivated FBS (Gibco) at 37° C. in a 5% CO2 humidified incubator. For NK cell transduction, PDGFRB cDNA ORF clone (Cat: HG10514-G) was purchased from Sino Biological and cloned into pCDH-CMV-MCS-EF1-copGFP lentivirus vector (System Biosciences). To produce lentivirus, we transfected the lentiviral transfer vector DNA, together with psPAX2 packaging (Addgene) and pMD2.G envelope plasmid DNA (Addgene), into HEK293T cells; using a polyethyenimine (PEI) transfection protocol (Polysciences). Concentrated lentivirus was added to primary NK cells cultured in RPMI 1640 medium supplemented with 10% FCS and 10 jig/mL polybrene with 2,000×g centrifugation for 2 h. […]

A further assay concerns murine NK cells. Briefly: PDGFRβ expression in murine splenic NK cells, flow cytometry. It is filed as cell-based, mouse. The following applies: splenic NK cells of C57BL/6 mice, mouse cytokines 10 ng/ml, 24 h. The protocol: as §1
Mouse NK cells were isolated from the spleen of C57BL/6J or IL-15 transgenic mice, using the EasySep Mouse NK Cell Isolation Kit ([…] Technologies) as previously described (11).
Cells were stained with the indicated cell-surface markers and/or fixed/permeabilized using a Fixation/Permeabilization Kit (eBioscience). For intracellular staining of IFN-γ and PDGF-D, 5 μg/ml Brefeldin A (BioLegend) was added for 4 h before cell harvest. Intracellular staining of Ki67 was performed by fixing and permeabilizing with the Foxp3/Transcription Factor Staining Kit (eBioscience). […] Data were analyzed using NovoExpress software (Agilent Technologies).
Background: In flow cytometry, cells or beads pass a laser one at a time.

B1: IL-12: recombinant human IL-12 p70 (200-12); recombinant murine IL-12 in the mouse NK cell test (protein, UniProt P29459 23-219; P29460 23-328, looked up)
Interleukin-12 subunit alpha: RNLPVATPDPGMFPCLHHSQNLLRAVSNMLQKARQTLEFYPCTSEEIDHEDITKDKTSTVEACLPLELTKNESCLNSRETSFITNGSCLASRKTSFMMALCLSSIYEDLKMYQVEFKTMNAKLLMDPKRQIFLDQNMLAVIDELMQALNFNSETVPQKSSLEEPDFYKTKIKLCILLHAFRIRAVTIDRVMSYLNAS
Interleukin-12 subunit beta: IWELKKDVYVVELDWYPDAPGEMVVLTCDTPEEDGITWTLDQSSEVLGSGKTLTIQVKEFGDAGQYTCHKGGEVLSHSLLLLHKKEDGIWSTDILKDQKEPKNKTFLRCEAKNYSGRFTCWWLTTISTDLTFSVKSSRGSSDPQGVTCGAATLSAERVRGDNKEYEYSVECQEDSACPAAEESLPIEVMVDAVHKLKYENYTSSFFIRDIIKPDPPKNLQLKPLKNSRQVEVSWEYPDTWSTPHSYFSLTFCVQVQGKSKREKKDRVFTDKTSATVICRKNASISVRAQDRYYSSSWSEWASVPCS
modifications: p70 heterodimer
notes: recombinant human IL-12 p70 (200-12); recombinant murine IL-12 in the mouse NK cell test
For the molecule B1, the PDGFRβ expression result in assay [1] is on record as “ineffective”. Further, the “PDGFRβ expression in murine NK cells” value with murine NK cells is recorded as “did not express PDGFRβ”.
